Key:
[1] = biological target: T1, Human IL-1RAP, membrane-bound on human cells (HaCaT, dermal fibroblasts, neutrophils, PBMC, whole blood) (human, UniProt Q9NPH3 21-570); experiment: flow cytometry on human neutrophils, nonlinear sigmoidal regression
T1 construct: Endogenous protein on cells
T1 sequence: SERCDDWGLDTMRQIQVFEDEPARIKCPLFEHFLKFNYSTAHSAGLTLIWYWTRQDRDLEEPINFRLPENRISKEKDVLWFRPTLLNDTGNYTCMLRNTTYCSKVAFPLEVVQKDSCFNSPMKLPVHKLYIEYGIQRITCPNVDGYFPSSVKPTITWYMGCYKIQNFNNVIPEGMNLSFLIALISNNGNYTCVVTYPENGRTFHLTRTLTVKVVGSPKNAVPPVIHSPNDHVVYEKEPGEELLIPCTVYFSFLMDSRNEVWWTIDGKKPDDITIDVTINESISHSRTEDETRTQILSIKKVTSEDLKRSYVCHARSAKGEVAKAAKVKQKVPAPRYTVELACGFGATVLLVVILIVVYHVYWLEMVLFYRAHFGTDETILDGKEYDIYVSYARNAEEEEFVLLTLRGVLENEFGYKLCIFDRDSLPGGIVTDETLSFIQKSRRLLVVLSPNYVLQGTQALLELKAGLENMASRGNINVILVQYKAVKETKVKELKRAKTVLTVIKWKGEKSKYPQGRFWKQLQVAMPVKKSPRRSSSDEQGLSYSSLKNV
Protocol: In brief, cells were harvested, counted, and plated at 50,000 cells/well in a 96-well round-bottom plate. The plate was centrifuged at 350 g for 3 minutes and the cells were resuspended in 50 μl of FACS® buffer (PBS (1×)+2.5% FCS+2 mM EDTA+0.05% NaN₃) containing various concentrations (ranging from 50 to 0.00003 μg/ml) of either anti-human IL-1RAP_candidate_1 or Isotype control_5 antibodies. Stained cells were incubated for 30 minutes at 4° C., washed twice with FACS® buffer at 350 g for 3 min and resuspended in […] of a monoclonal anti-human IgG PE-Cyanine7 secondary antibody (Biolegend, 409316) diluted 1/200 in FACS® buffer. Cells were then washed twice and resuspended in 200 μl of FACS® buffer containing SYTOX® Green dead cell stain (THERMO FISHER […]®, S34860) and samples were acquired on a CYTOFLEX® instruments (Beckman Coulter). The cells were gated based on size on FSC vs SSC and analyzed for PE-Cyanine7-geometric mean (geomean) fluorescence intensity using FLOWJO® software. Finally, relative geomean fluorescence intensity was calculated by subtracting fluorescence of anti-human IL-1RAP_candidate_1 per fluorescence of Isotype control_5. As depicted in FIGS. 6A, 6B, 6C, 6D, and 6E, anti-human IL-1RAP_candidate_1 antibody recognizes membrane-bound IL-1RAP expressed on HaCaT cell line and all primary cells. Multiple independent experiments were performed using multiple donors. […]

[2] = biological target: T1, Human IL-1RAP, membrane-bound on human …; experiment: cell-based or functional assay
[3] = biological target: T1, Human IL-1RAP, membrane-bound on human …; experiment: flow cytometry on normal human fibroblasts, nonlinear sigmoidal regression
Protocol: Bound antibodies were detected with a monoclonal anti-human IgG PE-Cyanine7 secondary antibody. The graphs show the nonlinear sigmoidal regression binding curves (Relative Geometric Mean Fluorescence Intensity) for each cell lines. Each data point is a measurement for a given cell line. Multiple independent experiments were performed across several donors (HaCaT and HaCaT IL-1RAP KO: 4 and 3 independent experiments; Human Dermal Fibroblasts: 2 independent experiments—total of 5 donors; Human Neutrophil: 2 experiments—total of 6 donors; Cyno Dermal Fibroblasts: 2 independent experiment—total of 4 donors).
In brief, cells were harvested, counted, and plated at 50,000 cells/well in a 96-well round-bottom plate. The plate was centrifuged at 350 g for 3 minutes and the cells were resuspended in 50 μl of FACS® buffer (PBS (1×)+2.5% FCS+2 mM EDTA+0.05% NaN₃) containing various concentrations (ranging from 50 to 0.00003 μg/ml) of either anti-human IL-1RAP_candidate_1 or Isotype control_5 antibodies. […] The cells were gated based on size on FSC vs SSC and analyzed for PE-Cyanine7-geometric mean (geomean) fluorescence intensity using FLOWJO® software. Finally, relative geomean fluorescence intensity was calculated by subtracting fluorescence of anti-human IL-1RAP_candidate_1 per fluorescence of Isotype control_5. […]

Kd [1]: 1.67 nM
human whole blood, IL-1alpha stimulation, IL-6 release, mean EC50 of inhibition [2]: 9.5 nM
human whole blood, IL-1alpha stimulation, IL-8 release, mean EC50 of inhibition [2]: 14.2 nM
human whole blood, IL-1alpha stimulation, MCP-1 release, mean EC50 of inhibition [2]: 11.1 nM
human whole blood, IL-1alpha stimulation, MIP-1alpha release, mean EC50 of inhibition [2]: 15 nM
human whole blood, IL-1alpha stimulation, MIP-1beta release, mean EC50 of inhibition [2]: 89 nM
human whole blood, IL-1beta stimulation, IL-6 release, mean EC50 of inhibition [2]: 8.8 nM
human whole blood, IL-1beta stimulation, IL-8 release, mean EC50 of inhibition [2]: 24.7 nM
human whole blood, IL-1beta stimulation, MCP-1 release, mean EC50 of inhibition [2]: 17.7 nM
human whole blood, IL-1beta stimulation, MIP-1alpha release, mean EC50 of inhibition [2]: 16 nM
human whole blood, IL-1beta stimulation, MIP-1beta release, mean EC50 of inhibition [2]: 53.3 nM
Kd [3]: 3.1 nM
B1: Anti-IL-1RAP-C8-RecC-ES-IgG1LALA (antibody, V domains shown)
VH: QVQLVQSGAEVKKPGSSVKVSCKASGSPAEPYAIQWVRQAPGQGLEWMGYIIPSLGGYDYAQKFQGRVTITADESTSTAYMELSSLRSEDTAVYYCARGQTLYESGRQFDIWGQGTLVTVSS
VL: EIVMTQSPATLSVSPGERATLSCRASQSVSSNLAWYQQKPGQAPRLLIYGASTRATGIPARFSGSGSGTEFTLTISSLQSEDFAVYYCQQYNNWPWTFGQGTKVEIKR
notes: also called ISB 880-C8-recC-ES

Reference: patent publication US20240327530A1 (ICHNOS SCIENCES, published 2024)
